Measured values reported in patent US11555055B2, “Peptide inhibitors of insulin-degrading enzyme” (The Regents of the University of California, priority 2017, dated 2023).
Bridges are numbered along the chain shown (N, C = ends). Where no end group is shown, it is not given here.

B1: C7C-2 (peptide)
peptide: ACNAGHLSQCG
modifications: disulfide 2-10 (inferred)
notes: the synthesized peptide has one C-terminal glycine
B2: C7C-2A (peptide)
peptide: ACNAGHLSQCG-NH2
modifications: disulfide 2-10 (inferred)
notes: also called amidated derivative of C7C-2
B3: P12-3C (peptide)
peptide: Ac-WCYPHCVT-OH
modifications: cysteine pairing not given here
notes: also called N-terminally truncated variant of P12-3
B4: P12-3B (peptide)
peptide: QSLPWCYP-NH2
notes: also called C-terminally truncated variant of P12-3

What follows are binders tested against T1, recombinant human insulin-degrading enzyme (IDE) (human, UniProt P14735 42-1019, limits assumed) (assay: IDE activity assay, FRET1 substrate).
T1 construct: Used at 1 nM in the in vitro activity assays; immobilised on plates for phage panning
T1 sequence (looked up): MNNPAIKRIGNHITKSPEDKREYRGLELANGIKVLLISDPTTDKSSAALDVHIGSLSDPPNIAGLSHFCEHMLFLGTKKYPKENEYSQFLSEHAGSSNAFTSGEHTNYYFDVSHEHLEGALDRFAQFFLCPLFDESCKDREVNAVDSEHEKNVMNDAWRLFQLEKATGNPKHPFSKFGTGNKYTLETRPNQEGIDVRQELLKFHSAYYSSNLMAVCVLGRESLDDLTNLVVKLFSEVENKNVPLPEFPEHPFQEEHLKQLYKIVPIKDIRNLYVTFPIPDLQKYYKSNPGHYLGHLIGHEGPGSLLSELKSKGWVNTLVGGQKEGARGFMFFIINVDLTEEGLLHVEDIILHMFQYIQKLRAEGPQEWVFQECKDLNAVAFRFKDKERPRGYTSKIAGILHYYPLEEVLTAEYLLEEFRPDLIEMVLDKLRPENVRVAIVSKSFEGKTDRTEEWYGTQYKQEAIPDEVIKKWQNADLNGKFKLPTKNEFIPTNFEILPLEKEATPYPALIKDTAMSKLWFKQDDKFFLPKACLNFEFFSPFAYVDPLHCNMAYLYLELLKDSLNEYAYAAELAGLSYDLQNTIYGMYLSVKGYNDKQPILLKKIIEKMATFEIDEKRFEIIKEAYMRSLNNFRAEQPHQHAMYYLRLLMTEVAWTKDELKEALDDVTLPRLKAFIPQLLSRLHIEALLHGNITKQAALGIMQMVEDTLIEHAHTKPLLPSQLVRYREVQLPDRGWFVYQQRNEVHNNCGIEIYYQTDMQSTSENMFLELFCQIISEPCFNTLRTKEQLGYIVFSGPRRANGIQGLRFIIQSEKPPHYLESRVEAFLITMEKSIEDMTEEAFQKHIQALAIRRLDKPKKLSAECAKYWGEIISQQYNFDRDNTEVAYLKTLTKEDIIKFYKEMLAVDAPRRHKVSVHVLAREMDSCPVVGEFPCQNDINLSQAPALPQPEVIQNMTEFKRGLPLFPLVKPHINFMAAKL

**Q.** Which Ki does the source give for B1 here?
**A.** > 500 µM

**Q.** Ac-PISGKFFQ-NH2 [P12-4D] was tested. Which Ki did it give?
**A.** > 500 µM

**Q.** For LNFPMPSRPHSS-NH2 [P12-2A], which Ki is on record?
**A.** > 100 µM

**Q.** Which Ki does the source give for Ac-FPMPSRPH-NH2 [P12-2D] here?
**A.** > 500 µM

**Q.** For LNFPMPSR-NH2 [P12-2B], which Ki is on record?
**A.** > 500 µM

**Q.** With LNFPMPSRPHSS [P12-2] as the binder, how does the Ki read?
**A.** > 100 µM

**Q.** ACSWWSIHLCGGG (disulfide 2-10 (inferred)) [C7C-1B] was tested. Which Ki did it give?
**A.** > 100 µM

**Q.** For Ac-SGKFFQRF [P12-4C], which Ki is on record?
**A.** > 500 µM

**Q.** Which Ki does the source give for WSPISGKF-NH2 [P12-4B] here?
**A.** > 500 µM

**Q.** With Ac-MPSRPHSS [P12-2C] as the binder, how does the Ki read?
**A.** > 500 µM

**Q.** For B2, which Ki is on record?
**A.** > 500 µM

These binders were tested against T1, recombinant human insulin-degrading … (assay: IDE activity assay, insulin substrate (ELISA)).

**Q.** For B1, which Ki is on record?
**A.** > 10 µM

**Q.** Which Ki does the source give for B3 here?
**A.** > 10 µM

**Q.** Which Ki does the source give for Ac-PISGKFFQ-NH2 [P12-4D] here?
**A.** > 10 µM

**Q.** B4 was tested. Which Ki did it give?
**A.** > 10 µM

**Q.** How did the Ki turn out when LNFPMPSRPHSS-NH2 [P12-2A] was run?
**A.** > 10 µM

**Q.** How did the Ki turn out when Ac-FPMPSRPH-NH2 [P12-2D] was run?
**A.** > 10 µM

**Q.** For LNFPMPSR-NH2 [P12-2B], which Ki is on record?
**A.** > 10 µM

**Q.** How did the Ki turn out when LNFPMPSRPHSS [P12-2] was run?
**A.** > 10 µM

**Q.** ACSWWSIHLCGGG (disulfide 2-10 (inferred)) [C7C-1B] was tested. Which Ki did it give?
**A.** > 10 µM

**Q.** With Ac-SGKFFQRF [P12-4C] as the binder, how does the Ki read?
**A.** > 10 µM

**Q.** WSPISGKF-NH2 [P12-4B] was tested. Which Ki did it give?
**A.** > 10 µM

**Q.** Which Ki does the source give for Ac-MPSRPHSS [P12-2C] here?
**A.** > 10 µM

**Q.** Which Ki does the source give for B2 here?
**A.** > 10 µM
